Experimental data published in paper PMC5320558, “The general PTS component HPr determines the preference for glucose over mannitol” (Scientific Reports, 2017).
Blank lines part the entries; values can stand above or below the molecule they belong to.

Tests used:
[1] = target: Untagged HPr (wild type) (E. coli) (UniProt P0AA04); test: SPR; HPr immobilised on a CM5 sensor chip, various concentrations of MtlR applied; BIAcore 3000; BIAevaluation, assuming a 1:1 interaction
[2] = target: Untagged HPr (wild type) (E. coli) (UniProt P0AA04); test: SEC; gel filtration on Superose 12 10/300 GL of MtlR alone, HPr alone and their mixture; fractions analysed by SDS-PAGE
[3] = target: the molecule itself; test: as above

- Kd [1]: 62.2 nM
- stoichiometry N [2]: 1 HPr:MtlR
Molecule: Untagged MtlR (mannitol operon repressor) (from UniProt P0AF10 1-195) (natural protein)

B1: Untagged MtlR (mannitol operon repressor) (natural protein, E. coli, UniProt P0AF10 1-195, looked up)
chain: MVDQAQDTLRPNNRLSDMQATMEQTQAFENRVLERLNAGKTVRSFLITAVELLTEAVNLLVLQVFRKDDYAVKYAVEPLLDGDGPLGDLSVRLKLIYGLGVINRQEYEDAELLMALREELNHDGNEYAFTDDEILGPFGELHCVAALPPPPQFEPADSSLYAMQIQRYQQAVRSTMVLSLTELISKISLKKAFQK
notes: MtlR, transcriptional repressor of the mtl operon, E. coli; monomer approximately 22.0 kDa; Eluted as a tetramer in gel filtration; source: overexpressed, purified (MonoQ, Superdex 75)
- stoichiometry N [3]: 4
